# Measurements taken from PMC12901311, “HEXIM1 inter-monomer autoinhibition governs 7SK RNA binding specificity and P-TEFb inactivation” (Nature Communications, 2024).
# Tests used:
# [1] = molecular target: Hexim1 NBLA-S158EE (human, UniProt O94992 1-157+=EE+159-253, internal_change); test: ITC; N=0.74; ITC: 20 mM HEPES pH 7.5, 150 mM KCl, 1 mM TCEP, 295 K; NMR: 50 mM Na phosphate pH 6.2, 150 mM KCl, 0.02% NaN3, 5% D2O, 298 K; EMSA: binding buffer (20 mM HEPES); settings: protein: recombinant; hairpin with U40U41 and U63 bulges
# [2] = molecular target: Hexim1 BR-L-AR(S183C-MTSL) (human, UniProt O94992 142-253, S183C); test: NMR (PRE); 1:1.2 protein:RNA; intensity recovery outside BR; ITC: 20 mM HEPES pH 7.5, 150 mM KCl, 1 mM TCEP, 295 K; NMR: 50 mM Na phosphate pH 6.2, 150 mM KCl, 0.02% NaN3, 5% D2O, 298 K; EMSA: binding buffer (20 mM HEPES); settings: protein: recombinant; tags: MBP-His6 removed by TEV; non-native N-terminal G; MTSL spin label at C183; hairpin with U40U41 and U63 bulges
# [3] = molecular target: Hexim1-deltaPYNT (human, UniProt O94992 1-201+206-359, internal_change); test: ITC; ITC: 20 mM HEPES pH 7.5, 150 mM KCl, 1 mM TCEP, 295 K; NMR: 50 mM Na phosphate pH 6.2, 150 mM KCl, 0.02% NaN3, 5% D2O, 298 K; EMSA: binding buffer (20 mM HEPES); settings: protein: recombinant; chain copies: 2; hairpin
# Chain of Hexim1-deltaPYNT (O94992 other isoform, or with tags, fused parts or gaps | mutant): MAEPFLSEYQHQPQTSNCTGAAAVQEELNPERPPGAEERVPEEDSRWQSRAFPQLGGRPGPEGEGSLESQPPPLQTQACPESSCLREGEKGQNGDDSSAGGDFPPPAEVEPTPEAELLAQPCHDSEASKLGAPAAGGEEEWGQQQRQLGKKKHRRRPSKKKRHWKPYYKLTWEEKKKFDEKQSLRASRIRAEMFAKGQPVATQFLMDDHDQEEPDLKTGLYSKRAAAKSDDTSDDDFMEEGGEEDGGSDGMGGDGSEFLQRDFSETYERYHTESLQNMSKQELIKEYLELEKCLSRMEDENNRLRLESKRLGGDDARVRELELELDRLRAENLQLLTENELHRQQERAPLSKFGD
# Chain of Hexim1 NBLA-S158EE (O94992 other isoform, or with tags, fused parts or gaps): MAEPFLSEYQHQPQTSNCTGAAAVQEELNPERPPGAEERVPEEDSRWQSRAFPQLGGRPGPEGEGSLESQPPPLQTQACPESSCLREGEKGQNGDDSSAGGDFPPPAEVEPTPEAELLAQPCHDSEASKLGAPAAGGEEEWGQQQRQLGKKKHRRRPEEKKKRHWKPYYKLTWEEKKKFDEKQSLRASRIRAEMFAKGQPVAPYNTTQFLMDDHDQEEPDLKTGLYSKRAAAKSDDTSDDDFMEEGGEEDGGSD
# Chain of Hexim1 BR-L-AR(S183C-MTSL) (O94992 142-253 S183C): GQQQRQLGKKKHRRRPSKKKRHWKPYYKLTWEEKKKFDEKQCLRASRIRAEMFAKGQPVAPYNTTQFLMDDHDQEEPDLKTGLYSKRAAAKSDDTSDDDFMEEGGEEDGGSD
Binder,Kd [1],binding result [2],binding signal [3]
GGCCAUUGAUCGCCUUCGGGCUGAUCUGGCC (structured_RNA) [7SK SL1-dI],0.727 ± 0.063 µM,binds,
GGAUGUGAGGGCGAUCUGGCUUCGGCCUUCCUCCCUCACCGCUCCA (structured_RNA) [7SK SL1-p],,,~5 fold tighter than wild-type Hexim1
